Reference: publication PMC2991585

Molecular target: actin filament (barbed end) (UniProt P68135)
Experiment: seeded pyrene-actin polymerization

- Kd: 0.0332 µM
Substance: CPαβ(ΔC34) (from UniProt P47753 1-286; P47757-2 1-272) (complex)
